Reference: patent US20240343814A1
Substitutions are numbered along the chain they refer to. Values belong to the binder of their own block, whether it stands above or below them.

Assays:
[1] = molecular target: Recombinant human his-tagged IGF 1R extracellular domain protein (human) (UniProt P08069); test: SPR, captured IgG, IGF-1R ECD-his analyte, dissociation pH 7.4
[2] = molecular target: Recombinant human his-tagged IGF 1R extracellular domain protein (human) (UniProt P08069); test: SPR, captured IgG, IGF-1R ECD-his analyte, dissociation pH 6
[3] = molecular target: Recombinant human his-tagged IGF 1R extracellular domain protein (human) (UniProt P08069); test: SPR, captured IgG, IGF-1R ECD-his analyte, dissociation pH 6; dissociation at pH 6
[4] = molecular target: Recombinant human his-tagged IGF 1R extracellular domain protein (human) (UniProt P08069); test: SPR, captured IgG, IGF-1R ECD-his analyte, dissociation pH 7.4; dissociation at pH 7.4

Kd [1]: 626 pM
koff [1]: 3.89e-05 s⁻¹
kon [1]: 62100 M⁻¹ s⁻¹
Kd [2]: < 16.1 pM
kon [2]: 47500 M⁻¹ s⁻¹
koff [3]: < 1e-06 s⁻¹
B1: VRDN-02500 (antibody, human IgG1, kappa, V domains shown)
VH: EVQLVQSGGGLVKPGGSLRLSCAASGFTFSSFAMHWVRQAPGKGLEWISVIDTRGATYYADSVKGRFTISRDNAKNSLYLQMNSLRAEDTAVYYCARLGNFYYGMDVWGQGTTVTVSS
VL: EIVLTQSPGTLSVSPGERATLSCRASQSIGSSLHWYQQKPGQAPRLLIKYASQSLSGIPDRFSGSGSGTDFTLTISRLEPEDFAVYYCHQSSRLPHTFGQGTKVEIKR

Kd [1]: < 9.26 pM
kon [1]: 108000 M⁻¹ s⁻¹
Kd [2]: 28.3 pM
koff [2]: 1e-06 s⁻¹
kon [2]: 35300 M⁻¹ s⁻¹
koff [4]: < 1e-06 s⁻¹
B2: VRDN-02514 (antibody, V domains shown)
VH: B1 VH with A56H
VL: EIVLTQSPGTLSVSPGERATLSCRASQSIGSSLHWYQQKPGQAPRLLIKYASQSLSGIPDRFSGSGSGTDFTLTISRLEPEDFAVYYCHQSSRLPHTFGQGTKVEIK

Kd [1]: 14.3 pM
koff [1]: 1e-06 s⁻¹
kon [1]: 69900 M⁻¹ s⁻¹
Kd [2]: 26.7 pM
koff [2]: 1e-06 s⁻¹
kon [2]: 37400 M⁻¹ s⁻¹
B3: VRDN-02506 (antibody, V domains shown)
VH: B1 VH with S31H
VL: B2 VL

Kd [1]: 41600 pM
koff [1]: 0.0319 s⁻¹
kon [1]: 766000 M⁻¹ s⁻¹
Kd [2]: 4280 pM
koff [2]: 0.000672 s⁻¹
kon [2]: 157000 M⁻¹ s⁻¹
B4: VRDN-02511 (antibody, V domains shown)
VH: B1 VH with T53H
VL: B2 VL

Kd [1]: 8160 pM
koff [1]: 0.00119 s⁻¹
kon [1]: 146000 M⁻¹ s⁻¹
Kd [2]: 615 pM
koff [2]: 0.00239 s⁻¹
kon [2]: 3.88e+06 M⁻¹ s⁻¹
B5: VRDN-02557 (antibody, V domains shown)
VH: B1 VH with M105H
VL: B2 VL with Y50H

Kd [1]: 771 pM
koff [1]: 6.38e-05 s⁻¹
kon [1]: 82800 M⁻¹ s⁻¹
Kd [2]: 34.8 pM
koff [2]: 1e-06 s⁻¹
kon [2]: 28700 M⁻¹ s⁻¹
B6: VRDN-02551 (antibody, V domains shown)
VH: B1 VH
VL: B2 VL with P95H

Kd [1]: 100 pM
koff [1]: 1.99e-05 s⁻¹
kon [1]: 199000 M⁻¹ s⁻¹
Kd [2]: 46.9 pM
koff [2]: 1e-06 s⁻¹
kon [2]: 21300 M⁻¹ s⁻¹
B7: VRDN-02507 (antibody, V domains shown)
VH: B1 VH with F32H
VL: B2 VL

Kd [1]: 9120 pM
koff [1]: 0.0243 s⁻¹
kon [1]: 2.66e+06 M⁻¹ s⁻¹
Kd [2]: 5770 pM
koff [2]: 0.0198 s⁻¹
kon [2]: 3.43e+06 M⁻¹ s⁻¹
B8: VRDN-02565 (antibody, V domains shown)
VH: B1 VH with A96H, G104H
VL: B2 VL

Kd [1]: 2770 pM
koff [1]: 0.000473 s⁻¹
kon [1]: 171000 M⁻¹ s⁻¹
Kd [2]: 5410 pM
koff [2]: 0.000569 s⁻¹
kon [2]: 105000 M⁻¹ s⁻¹
B9: VRDN-02567 (antibody, V domains shown)
VH: B1 VH with G104H, M105H
VL: B2 VL

Kd [1]: 285 pM
koff [1]: 4.81e-05 s⁻¹
kon [1]: 169000 M⁻¹ s⁻¹
Kd [2]: 28.5 pM
koff [2]: 1e-06 s⁻¹
kon [2]: 35100 M⁻¹ s⁻¹
B10: VRDN-02509 (antibody, V domains shown)
VH: B1 VH with M34H
VL: B2 VL

Kd [1]: 10400 pM
koff [1]: 0.0127 s⁻¹
kon [1]: 1.22e+06 M⁻¹ s⁻¹
Kd [2]: 8470 pM
koff [2]: 0.0146 s⁻¹
kon [2]: 1.72e+06 M⁻¹ s⁻¹
B11: VRDN-02556 (antibody, V domains shown)
VH: B1 VH with G104H
VL: B2 VL with Y50H

Kd [1]: 933 pM
koff [1]: 0.0336 s⁻¹
kon [1]: 3.61e+07 M⁻¹ s⁻¹
Kd [2]: 996 pM
koff [2]: 0.000541 s⁻¹
kon [2]: 543000 M⁻¹ s⁻¹
B12: VRDN-02560 (antibody, V domains shown)
VH: B1 VH with A33H, G104H
VL: B2 VL

Kd [1]: 5.15 pM
koff [1]: 1e-06 s⁻¹
kon [1]: 194000 M⁻¹ s⁻¹
Kd [2]: 3900 pM
koff [2]: 0.000207 s⁻¹
kon [2]: 53100 M⁻¹ s⁻¹
B13: VRDN-02508 (antibody, V domains shown)
VH: B1 VH with A33H
VL: B2 VL

Kd [1]: 571 pM
koff [1]: 5.82e-05 s⁻¹
kon [1]: 102000 M⁻¹ s⁻¹
Kd [2]: 692 pM
koff [2]: 6.92e-05 s⁻¹
kon [2]: 100000 M⁻¹ s⁻¹
B14: VRDN-02515 (antibody, V domains shown)
VH: B1 VH with T57H
VL: B2 VL

Kd [1]: 2600 pM
koff [1]: 0.000375 s⁻¹
kon [1]: 144000 M⁻¹ s⁻¹
Kd [2]: 42.2 pM
koff [2]: 1e-06 s⁻¹
kon [2]: 23700 M⁻¹ s⁻¹
B15: VRDN-02505 (antibody, V domains shown)
VH: B1 VH with S30H
VL: B2 VL

Kd [1]: 17400 pM
koff [1]: 0.0197 s⁻¹
kon [1]: 1.14e+06 M⁻¹ s⁻¹
Kd [2]: 3000 pM
koff [2]: 0.00885 s⁻¹
kon [2]: 2.95e+06 M⁻¹ s⁻¹
B16: VRDN-02566 (antibody, V domains shown)
VH: B1 VH with A96H, M105H
VL: B2 VL

Kd [1]: 6080 pM
koff [1]: 0.000271 s⁻¹
kon [1]: 44600 M⁻¹ s⁻¹
Kd [2]: 1200 pM
koff [2]: 3.96e-05 s⁻¹
kon [2]: 32900 M⁻¹ s⁻¹
B17: VRDN-02512 (antibody, V domains shown)
VH: B1 VH with R54H
VL: B2 VL

Kd [1]: 1060 pM
koff [1]: 5.09e-05 s⁻¹
kon [1]: 48200 M⁻¹ s⁻¹
Kd [2]: 32.2 pM
koff [2]: 1e-06 s⁻¹
kon [2]: 31100 M⁻¹ s⁻¹
B18: VRDN-02513 (antibody, V domains shown)
VH: B1 VH with G55H
VL: B2 VL

Kd [1]: 5.43 pM
koff [1]: 1e-06 s⁻¹
kon [1]: 184000 M⁻¹ s⁻¹
Kd [2]: < 27.3 pM
kon [2]: 36600 M⁻¹ s⁻¹
koff [3]: < 1e-06 s⁻¹
B19: VRDN-02526 (antibody, V domains shown)
VH: B1 VH with D106H
VL: B2 VL

Kd [1]: 31.1 pM
koff [1]: 1e-06 s⁻¹
kon [1]: 32200 M⁻¹ s⁻¹
Kd [2]: 23.9 pM
koff [2]: 1e-06 s⁻¹
kon [2]: 41900 M⁻¹ s⁻¹
B20: VRDN-02552 (antibody, V domains shown)
VH: B1 VH
VL: B2 VL with T97H

Kd [1]: 593 pM
koff [1]: 0.000503 s⁻¹
kon [1]: 849000 M⁻¹ s⁻¹
Kd [2]: 1740 pM
koff [2]: 0.000567 s⁻¹
kon [2]: 327000 M⁻¹ s⁻¹
B21: VRDN-02559 (antibody, V domains shown)
VH: B1 VH with A33H, A96H
VL: B2 VL

Kd [1]: 214 pM
koff [1]: 5.3e-05 s⁻¹
kon [1]: 248000 M⁻¹ s⁻¹
Kd [2]: 3840 pM
koff [2]: 0.000116 s⁻¹
kon [2]: 30200 M⁻¹ s⁻¹
B22: VRDN-02510 (antibody, V domains shown)
VH: B1 VH with D52H
VL: B2 VL
